Target: SAVSBPM18-L-ABD(KC) fusion (not stated | Lumbricus terrestris)
Test: affinity chromatography; 1-ml columns with about 1 mg of SAVSBPM18-L-ABD(KC) on Sepharose 6B-CL or 1,025 μg of SAVSBPM18 on Affi-Gel 15; 1 mg of biotinylated BSA loaded, above the binding capacity; elution with 10 mM biotin; fractions on SDS-PAGE

amount bound per ml of matrix at saturation (μg per ml of matrix): 730
Substance: chemically biotinylated bovine serum albumin (BSA) (from UniProt P02769 25-607) (natural protein)
